Test results: paper PMC6179994, “Structural insights on TRPV5 gating by endogenous modulators” (Nature Communications, 2018)

How the values were obtained:
[1] = target: T1, rat calmodulin (CaM), calcium-activated (rat, UniProt P0DP29 1-149); assay: cryo-EM structure; detergent solubilized TRPV5 (DMNG) incubated 1 h with 10 mM CaCl2 and rat CaM at 1:20 (TRPV5 tetramer:CaM), then SEC; map at 4.4 Å without applied symmetry; details: both partners purified
T1 construct: calmodulin, rat; modelled from the N-lobe (residues 6-77) and C-lobe (residues 83-147) of PDB 1CLL; Expressed from the pET 28b vector; The patch clamp experiments used purified CaM from bovine testes bought from Sigma, not this recombinant protein; also called Ca^2+-CaM; source: E. coli Rosetta 2(DE3), purified (phenyl sepharose, AKTA purifier)

[2] = target: the molecule itself; assay: cryo-EM structure; lipid-bound TRPV5 in detergent (DMNG) with 200 µM diC8 PI(4,5)P2; C4 symmetry, 3.9 Å

B1: full-length rabbit TRPV5 (transient receptor potential vanilloid 5) (natural protein, UniProt Q9XSM3 1-730, looked up)
chain: MGACPPKAKGPWAQLQKLLISWPVGEQDWEQYRDRVNMLQQERIRDSPLLQAAKENDLRLLKILLLNQSCDFQQRGAVGETALHVAALYDNLEAATLLMEAAPELAKEPALCEPFVGQTALHIAVMNQNLNLVRALLARGASVSARATGAAFRRSPHNLIYYGEHPLSFAACVGSEEIVRLLIEHGADIRAQDSLGNTVLHILILQPNKTFACQMYNLLLSYDEHSDHLQSLELVPNHQGLTPFKLAGVEGNTVMFQHLMQKRKHVQWTCGPLTSTLYDLTEIDSWGEELSFLELVVSSKKREARQILEQTPVKELVSFKWKKYGRPYFCVLASLYILYMICFTTCCIYRPLKLRDDNRTDPRDITILQQKLLQEAYVTHQDNIRLVGELVTVTGAVIILLLEIPDIFRVGASRYFGQTILGGPFHVIIITYASLVLLTMVMRLTNMNGEVVPLSFALVLGWCSVMYFARGFQMLGPFTIMIQKMIFGDLMRFCWLMAVVILGFASAFHITFQTEDPNNLGEFSDYPTALFSTFELFLTIIDGPANYSVDLPFMYCITYAAFAIIATLLMLNLFIAMMGDTHWRVAQERDELWRAQVVATTVMLERKMPRFLWPRSGICGYEYGLGDRWFLRVENHHDQNPLRVLRYVEAFKCSDKEDGQEQLSEKRPSTVESGMLSRASVAFQTPSLSRTTSQSSNSHRGWEILRRNTLGHLNLGLDLGEGDGEEVYHF
notes: TRPV5, rabbit, full length; tetrameric channel; Eluted from the beads with 1D4 peptide; no removal of the tag is described; source: Saccharomyces cerevisiae, detergent solubilized, purified (1D4 antibody Sepharose beads, SEC on Superose 6)
**Q.** Does B1 bind [1]?
**A.** binds

**Q.** What about the “stoichiometry N” value [2] of the same binder?
**A.** 4 subunits
